Test results taken from FireProtDB (doi:10.1021/bi002812d).
“And” between values parts separate entries of the source, which are not always exact repeats. Identical values can stand only once.

B1: Cyclin-dependent kinases regulatory subunit, P08463 (parent)
chain: MSKSGVPRLLTASERERLEPFIDQIHYSPRYADDEYEYRHVMLPKAMLKAIPTDYFNPETGTLRILQEEEWRGLGITQSLGWEMYEVHVPEPHILLFKREKDYQMKFSQQRGG

Variants of: B1
Settings: Schizosaccharomyces pombe (strain 972 / ATCC 24843), pH 7.1, 25 °C, GdnHCl, Fluorescence, Tris-HCl, NaCl, reversible: yes, structure 1SCE, whole UniProt chain shown

Row | Variant | denaturant m value (transition: 2+2) | denaturant midpoint (higher = more stable) (transition: 2+2) | unfolding free energy (transition: 2+2) | denaturant m value (transition: 2) | denaturant midpoint (higher = more stable) (transition: 2) | unfolding free energy (transition: 2) | denaturant m value (transition: 3) | denaturant midpoint (higher = more stable) (transition: 3) | ddG of mutation (higher = less stable) (transition: 2)
1 | P90V P92V | 1.88 kcal/mol/M | 4.14 M | 7.8 kcal/mol | 3.42 kcal/mol/M and 3.31 kcal/mol/M | 2.04 M and 1.67 M | 6.97 kcal/mol and 5.52 kcal/mol | 1.7 kcal/mol/M and 3.39 kcal/mol/M | 0.74 M and 2.08 M | 
2 | P90V |  |  |  | 3.42 kcal/mol/M and 3.55 kcal/mol/M | 1.96 M and 1.9 M | 6.71 kcal/mol and 6.74 kcal/mol |  |  | 0.63 kcal/mol and 0.62 kcal/mol
3 | P92V |  |  |  | 3.85 kcal/mol/M and 3.55 kcal/mol/M | 1.86 M and 2.05 M | 7.16 kcal/mol and 7.28 kcal/mol |  |  | 0.18 kcal/mol and 0.08 kcal/mol
